Results reported in FireProtDB (doi:10.1016/j.jmb.2009.05.011).
Values joined by “and” are separate entries in the source; they are usually repeats but may differ in a detail not shown here. Identical values can stand only once.

B1: Dihydrolipoyllysine-residue succinyltransferase component of 2-oxoglutarate dehydrogenase complex, P0AFG6 (parent)
chain: MSSVDILVPDLPESVADATVATWHKKPGDAVVRDEVLVEIETDKVVLEVPASADGILDAVLEDEGTTVTSRQILGRLREGNSAGKETSAKSEEKASTPAQRQQASLEEQNNDALSPAIRRLLAEHNLDASAIKGTGVGGRLTREDVEKHLAKAPAKESAPAAAAPAAQPALAARSEKRVPMTRLRKRVAERLLEAKNSTAMLTTFNEVNMKPIMDLRKQYGEAFEKRHGIRLGFMSFYVKAVVEALKRYPEVNASIDGDDVVYHNYFDVSMAVSTPRGLVTPVLRDVDTLGMADIEKKIKELAVKGRDGKLTVEDLTGGNFTITNGGVFGSLMSTPIINPPQSAILGMHAIKDRPMAVNGQVEILPMMYLALSYDHRLIDGRESVGFLVTIKELLEDPTRLLLDV

Variants of: B1
Details: Escherichia coli (strain K12), pH 7, structure 1W4H, whole UniProt chain shown
[1] = 10 °C, GdnHCl, CD, 3-[morpholino]propanesulfonic acid 50 mM, NaCl 200 mM
[2] = 10 °C, GdnHCl, Fluorescence, 3-[morpholino]propanesulfonic acid 50 mM, NaCl 200 mM
[3] = Thermal, CD, Potassium phosphate 50 mM, KCl 200 mM

| Variant | ddG of mutation (higher = less stable) [1] [kJ/mol] | denaturant m value [1] [kcal/mol/M] | denaturant midpoint (higher = more stable) [1] [M] | unfolding free energy [1] [kJ/mol] | denaturant m value [2] | unfolding free energy [2] [kJ/mol] | Tm [3] [°C] | ddG of mutation (higher = less stable) [3] [kJ/mol] | unfolding enthalpy (van 't Hoff) [3] [kJ/mol] |
| --- | --- | --- | --- | --- | --- | --- | --- | --- | --- |
| MSSVDILVPDLPESVADATVATWHKKPGDAVVRDEVLVEIETDKVVLEVPASADGILDAVLEDEGTTVTSRQILGRLREGNSAGKETSAKSEEKASTPAQRQQASLEEQNNDALSPAARRLLAEHNLDASAIKGTGVGGRLTREDVEKHLAKAPAKESAPAAAAPAAQPALAARSEKRVPMTRLRKRVAERLLEAKNSTAMLTTFNEVNMKPIMDLRKQYGEAFEKRHGIRLGFMSFYVKAVVEALKRYPEVNASIDGDDVVYHNYFDVSMAVSTPRGLVTPVLRDVDTLGMADIEKKIKELAVKGRDGKLTVEDLTGGNFTITNGGVFGSLMSTPIINPPQSAILGMHAIKDRPMAVNGQVEILPMMYLALSYDHRLIDGRESVGFLVTIKELLEDPTRLLLDV [I118A] | 5.19 | 0.65 | 2.09 | 5.69 | 0.46 kcal/mol/M and 0.2 kcal/mol/M | 4.94 | – | – | – |
| MSSVDILVPDLPESVADATVATWHKKPGDAVVRDEVLVEIETDKVVLEVPASADGILDAVLEDEGTTVTSRQILGRLREGNSAGKETSAKSEEKASTPAQRQQASLEEQNNDALSPAIRRLLGEHNLDASAIKGTGVGGRLTREDVEKHLAKAPAKESAPAAAAPAAQPALAARSEKRVPMTRLRKRVAERLLEAKNSTAMLTTFNEVNMKPIMDLRKQYGEAFEKRHGIRLGFMSFYVKAVVEALKRYPEVNASIDGDDVVYHNYFDVSMAVSTPRGLVTPVLRDVDTLGMADIEKKIKELAVKGRDGKLTVEDLTGGNFTITNGGVFGSLMSTPIINPPQSAILGMHAIKDRPMAVNGQVEILPMMYLALSYDHRLIDGRESVGFLVTIKELLEDPTRLLLDV [A123G] | 3.89 | 0.72 | 2.55 | 7.7 | 0.42 kcal/mol/M and 0.23 kcal/mol/M | 7.57 | 40.8 | 4.27 | 83.7 |
| MSSVDILVPDLPESVADATVATWHKKPGDAVVRDEVLVEIETDKVVLEVPASADGILDAVLEDEGTTVTSRQILGRLREGNSAGKETSAKSEEKASTPAQRQQASLEEQNNDAASPAIRRLLAEHNLDASAIKGTGVGGRLTREDVEKHLAKAPAKESAPAAAAPAAQPALAARSEKRVPMTRLRKRVAERLLEAKNSTAMLTTFNEVNMKPIMDLRKQYGEAFEKRHGIRLGFMSFYVKAVVEALKRYPEVNASIDGDDVVYHNYFDVSMAVSTPRGLVTPVLRDVDTLGMADIEKKIKELAVKGRDGKLTVEDLTGGNFTITNGGVFGSLMSTPIINPPQSAILGMHAIKDRPMAVNGQVEILPMMYLALSYDHRLIDGRESVGFLVTIKELLEDPTRLLLDV [L114A] | 3.77 | 0.71 | 2.6 | 7.74 | 0.5 kcal/mol/M and 0.18 kcal/mol/M | 7.11 | 41.9 | 3.93 | 83.7 |
| MSSVDILVPDLPESVADATVATWHKKPGDAVVRDEVLVEIETDKVVLEVPASADGILDAVLEDEGTTVTSRQILGRLREGNSAGKETSAKSEEKASTPAQRQQASLEEQNNDALSPAIRRALAEHNLDASAIKGTGVGGRLTREDVEKHLAKAPAKESAPAAAAPAAQPALAARSEKRVPMTRLRKRVAERLLEAKNSTAMLTTFNEVNMKPIMDLRKQYGEAFEKRHGIRLGFMSFYVKAVVEALKRYPEVNASIDGDDVVYHNYFDVSMAVSTPRGLVTPVLRDVDTLGMADIEKKIKELAVKGRDGKLTVEDLTGGNFTITNGGVFGSLMSTPIINPPQSAILGMHAIKDRPMAVNGQVEILPMMYLALSYDHRLIDGRESVGFLVTIKELLEDPTRLLLDV [L121A] | 6.69 | 0.64 | 1.63 | 4.35 | 0.46 kcal/mol/M and 0.16 kcal/mol/M | 3.77 | 32.2 | 6.99 | 66.9 |
| MSSVDILVPDLPESVADATVATWHKKPGDAVVRDEVLVEIETDKVVLEVPASADGILDAVLEDEGTTVTSRQILGRLREGNSAGKETSAKSEEKASTPAQRQQASLEEQNNDALGPAIRRLLAEHNLDASAIKGTGVGGRLTREDVEKHLAKAPAKESAPAAAAPAAQPALAARSEKRVPMTRLRKRVAERLLEAKNSTAMLTTFNEVNMKPIMDLRKQYGEAFEKRHGIRLGFMSFYVKAVVEALKRYPEVNASIDGDDVVYHNYFDVSMAVSTPRGLVTPVLRDVDTLGMADIEKKIKELAVKGRDGKLTVEDLTGGNFTITNGGVFGSLMSTPIINPPQSAILGMHAIKDRPMAVNGQVEILPMMYLALSYDHRLIDGRESVGFLVTIKELLEDPTRLLLDV [S115G] | 2.38 | 0.7 | 3.05 | 8.95 | 0.21 kcal/mol/M | 9.67 | 53.6 | 1.97 | 87.9 |
